Assay results: patent publication US20190167756A1 (CITY OF HOPE, published 2019)

Molecular target: T1, CFP-AR-YFP (full length AR with cyan fluorescent protein and yellow fluorescent protein fused to either end) (UniProt P10275 1-920)
T1 construct: Reporter stably expressed in GT1-7 CARY cells; GT1-7 CARY lysates may also contain endogenous mouse AR; also called CARY; C-AR-Y; not shown: cyan fluorescent protein (CFP); yellow fluorescent protein (YFP)
T1 sequence (looked up): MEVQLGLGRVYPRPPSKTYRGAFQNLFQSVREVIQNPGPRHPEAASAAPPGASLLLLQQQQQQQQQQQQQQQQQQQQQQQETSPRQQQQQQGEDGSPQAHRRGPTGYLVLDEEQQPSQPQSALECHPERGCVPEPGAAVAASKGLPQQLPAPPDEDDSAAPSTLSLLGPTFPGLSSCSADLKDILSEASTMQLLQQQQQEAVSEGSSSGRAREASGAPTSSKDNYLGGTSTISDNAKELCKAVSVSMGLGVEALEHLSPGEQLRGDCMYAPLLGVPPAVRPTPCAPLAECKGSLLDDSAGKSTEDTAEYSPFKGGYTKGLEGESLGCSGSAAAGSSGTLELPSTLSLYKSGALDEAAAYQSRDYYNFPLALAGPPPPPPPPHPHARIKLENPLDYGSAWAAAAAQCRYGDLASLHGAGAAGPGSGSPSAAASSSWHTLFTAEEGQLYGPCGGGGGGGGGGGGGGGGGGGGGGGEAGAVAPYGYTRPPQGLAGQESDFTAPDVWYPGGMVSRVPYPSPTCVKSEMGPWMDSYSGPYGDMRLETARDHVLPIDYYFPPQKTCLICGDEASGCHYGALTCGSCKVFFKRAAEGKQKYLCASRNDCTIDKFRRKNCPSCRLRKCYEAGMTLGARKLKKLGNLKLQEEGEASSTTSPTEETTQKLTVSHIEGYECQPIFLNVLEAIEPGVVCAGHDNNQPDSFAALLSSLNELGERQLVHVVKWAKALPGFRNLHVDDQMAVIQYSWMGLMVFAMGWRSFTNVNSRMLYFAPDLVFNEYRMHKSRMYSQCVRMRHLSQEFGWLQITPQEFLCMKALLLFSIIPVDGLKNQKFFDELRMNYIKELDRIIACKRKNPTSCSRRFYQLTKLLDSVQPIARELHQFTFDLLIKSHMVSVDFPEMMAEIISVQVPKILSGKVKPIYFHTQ
Experiment: co-immunoprecipitation from GT1-7 CARY cell lysates, Western blot

binding result: no binding
B1: FOXM1 (other, mouse, UniProt O08696 1-760, looked up)
chain: MRTSPRRPLILKRRRLPLPVQNAPSETSEEEAKRSPAQPEPAPAQASQEVAESSSCKFPAGIKIINHPTTPNTQVVAIPSNADIQSIITALTAKGKESGTSGPNRFILISSGGPSSHPSQPQAHSSRDSKRAEVITETLGPKPAAKGVPVPKPPGAPPRQRQESYAGGEAAGCTLDNSLTNIQWLGKMSSDGLGPCSVKQELEEKENCHLEQNRVKVEEPSGVSTSWQDSVSERPPYSYMAMIQFAINSTERKRMTLKDIYTWIEDHFPYFKHIAKPGWKNSIRHNLSLHDMFVRETSANGKVSFWTIHPSANRHLTLDQVFKPLEPGSPQSPEHLESQQKRPNPELHRNVTIKTEIPLGARRKMKPLLPRVSSYLEPIQFPVNQSLVLQPSVKVPFRLAASLMSSELARHSKRVRIAPKVLLSSEGIAPLPATEPPKEEKPLLGGEGLLPLLPIQSIKEEEMQPEEDIAHLERPIKVESPPLEEWPSPCASLKEELSNSWEDSSCSPTPKPKKSYCGLKSPTRCVSEMLVTKRREKREVSRSRRKQHLQPPCLDEPDLFFPEDSSTFRPAVELLAESSEPAPHLSCPQEEGGPFKTPIKETLPVSSTPSKSVLSRDPESWRLTPPAKVGGLDFSPVRTPQGAFGLLPDSLGLMELNTTPLKSGPLFDSPRELLNSEPFDLASDPFGSPPPPHVEGPKPGSPELQIPSLSANRSLTEGLVLDTMNDSLSKILLDISFPGLEEDPLGPDNINWSQFIPELR
notes: also called Forkhead Box Protein M1
